Measurements published in the supplement of paper PMC9170038.

Test system: MS2 coat protein
Assay: apparent KD of MS2 coat protein; designed switch direction (-1 OFF switch, 1 ON switch): -1; higher = weaker reporter binding
In short: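 SNAP-549-labelled MS2 coat protein was titrated, doubling from 0.7 or 1.5 nM to 3 µM, over designed RNA switches transcribed on Illumina chips by stalled E. coli RNA polymerase. Runs were done without input, with 200 uM small-molecule ligand, or with an oligonucleotide input. Apparent KD is the per-design median over clusters of curve-fitted normalised fluorescence.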

[1] = input ligand: microRNA oligo, concentration not stated
[2] = Eterna round: R95, input ligand: FMN 200 uM
[3] = Eterna round: R95, input ligand: microRNA oligo, concentration not stated
[4] = Eterna round: R95, input ligand: none

Sequence	apparent KD of MS2 coat protein (input ligand: FMN 200 uM)	apparent KD of MS2 coat protein [1]	apparent KD of MS2 coat protein (input ligand: none)	apparent KD of MS2 coat protein [2]	apparent KD of MS2 coat protein [3]	apparent KD of MS2 coat protein [4]
AUUGUUUAUGUAGGAUAUGCCUGGCGUGCCUUUGCAGAAGGACAUGAGGAUCACCCAUGUAUUGCGGUCUGCGUUCAGAUCGCU [salish99_ExNG1_r4_033] (Eterna round: R96, puzzle: Exclusion NG 1)	44.4 nM	28.7 nM	30.7 nM	–	–	–
CCUAUGUGAGGAUAUCACUGGUCUUUUCAUUAGAUGAUCAGUGAGAAGGCACAUGAGGAUCACCCAUGUCAGUG [Ex4 - 3 - 53] (Eterna round: R96, puzzle: Exclusion 4)	48 nM	59.7 nM	110 nM	–	–	–
UAACAAGCUUAAAGAUCCUACAUGAGGAUCACCCAUGUGCUCGUCUUGUAACGUACUGUGACGAAAGUCACGGUACG [JL TOV1 3.15] (Eterna round: R97, puzzle: Sensor, turn-off variant 1)	521 nM	–	314 nM	–	–	–
AAUAACAAGUAAGGUCCUAACAUGAGGAUCACCCAUGUGCUCGUCUUAUAAAGUACUAUCACGAAAGUGAUAGUACA [Sensor 3, v1 - 52] (puzzle: Sensor v3, turn-off variant 1)	–	–	–	52.5 nM	414 nM	52.1 nM
ACAUGAGGAUCACCCAUGUCUGGCUGGUCUGCUCCGGCUGUUGAGGAUAUAGUUCGGUGUUCGCGCUAGAAGGUGAGGGCUGGC [Aenatbe mod 37] (Eterna round: R96, puzzle: Exclusion NG 3)	32.2 nM	23.1 nM	35.6 nM	–	–	–
GAAAAGGUAGGAUAUACGAAAAAAAAGGGUAGAAAAAAAAAACAUGAGGAUCACCCAUGUAGAAGGACCAAAAG [salish99_ex2_r3_059] (Eterna round: R96, puzzle: Exclusion 2)	–	34.7 nM	–	–	–	–
ACUAAUUGAGGAUAUACAUUGAUUUACAUGAGGAUCACCCAUGUUCAAACAUGUAUUUAUGUAGAAGGCAGAAGAA [JR_Ex5_Sub065] (Eterna round: R97, puzzle: Exclusion 5)	23 nM	–	17.5 nM	–	–	–
GUAAAUCAUGUAGGAUAUGCGUGGCGAAGCUAUGCAGAAGGACAUGAGGAUCACCCAUGUGCUUCCGUCUGAGAACAGACGGAA [Mat - Exclusion NG 1 - Mod of JL - D27] (Eterna round: R96, puzzle: Exclusion NG 1)	105 nM	187 nM	341 nM	–	–	–
CGAUAAAAGUGAGGAUAUGAGGAGAGAGAGAGAUCAGAAGGCACACAUGAGGAUCACCCAUGUGAGUUCUCGAAAUUAAAUAUU [Prohibition 49 - Jieux - Exclusion NG 1] (Eterna round: R96, puzzle: Exclusion NG 1)	15.2 nM	11.4 nM	18 nM	–	–	–
UAUUUAUAGCAAGGAUAUGAUUAUUAUUAUUUAUCAGAAGGUGCACAUGAGGAUCACCCAUGUUUUACAAUUUGUAAUUUAAUU [Default title] (Eterna round: R96, puzzle: Exclusion NG 1)	–	31.1 nM	–	–	–	–
AAUCAGCGAGGAUAUACAGAUUCUGGGUGCGGCUCGGCGAGACAUGAGGAUCACCCAUGUAGAAGGUGCUAGCC [Teoredre] (puzzle: Exclusion 2)	–	–	–	–	29.2 nM	–
AAUAAGCUAGGAUAUACAUGAGGAUCACCCAUGUGAGGGCACCGCCGGCGCGGGCCCGGUAGAAGGAGUCAUAA [Exc;s3-V] (puzzle: Exclusion 3)	–	–	–	22.1 nM	34.3 nM	27.7 nM
CUCGGGCUGGUGAGGAUAUCGGGCUCUAAAGGGCUCGAGAAGGCACAUGAGGAUCACCCAUGUAAUGGCUCGGG [-29.3, -27.9 kcal, A 23%, 4-4bis] (Eterna round: R97, puzzle: Brourd's mod of Exclusion 4)	17.3 nM	–	24.5 nM	–	–	–
AACUCAUGUUCAGGAUAUCGCGUUCCAAAGACAUGAGAAGGGAACAUGAGGAUCACCCAUGUGCCCGGUCUCAGACCGGGCUUC [Legebi] (Eterna round: R96, puzzle: Exclusion NG 1)	272 nM	71 nM	97.1 nM	–	–	–
UUUAUAUAUGAAGGAUAUACUUAACAUGAGGAUCACCCAUGUGGUGUUGUGAGUGAGUGAGUUUAGUAGAAGGUCAAGUAUUUU [JMF's solution 49] (Eterna round: R96, puzzle: Exclusion NG 2)	719 nM	177 nM	198 nM	–	–	–
UGUAGUUCAGGAUAUGAUGUUUAAUACAUGAGGAUCACCCAUGUAGAUCCUGAAUUUACAUCAGAAGGGAAUAUUU [JL-ex5-4.57 Brourd mod] (Eterna round: R97, puzzle: Exclusion 5)	17.3 nM	–	14.9 nM	–	–	–
UUUCAGCUAGGAUAUGCCCUGAUGCACAUGAGGAUCACCCAUGUCGGCUUGUGUAUGAGCGCAGAAGGAGCGAAAA [EX5 C.17] (Eterna round: R97, puzzle: Exclusion 5)	783 nM	–	268 nM	–	–	–

Sequence	apparent KD of MS2 coat protein (input ligand: FMN 200 uM)	apparent KD of MS2 coat protein [1]	apparent KD of MS2 coat protein (input ligand: none)	apparent KD of MS2 coat protein [2]	apparent KD of MS2 coat protein [3]	apparent KD of MS2 coat protein [4]
UCACAGUUAGGAUAUGCGAGUUUGGUGUGCAUCCUAGACAUACAUGAGGAUCACCCAUGUAGAAGGAAUAGUGG [Eternabot (L2) Solution 80] (Eterna round: R97, puzzle: Exclusion 2)	34.5 nM	–	27.1 nM	–	–	–
AAACGGAUAGGAUAUACUUGAGGAUCACCCAAGUGAUCAGUCCCGGGAAUUCCCGCAAGUAGAAGGAUCAAAAG [Arisrevexe] (Eterna round: R97, puzzle: Exclusion 3)	1120 nM	–	162 nM	–	–	–
CGUACUGAAGUGAGGAUAUUGUCUCGGAUACGAAACAAGAAGGCACAUGAGGAUCACCCAUGUUAACAGUACGA [Malc #30 mod 9] (puzzle: Brourd's mod of Exclusion 4)	–	–	–	15.2 nM	19.2 nM	14.5 nM
GCGGACUAGUACGUGAGUACUGAGACAUGAGGAUCACCCAUGUAGGAUAUCGAUUCGAAACGAAUCGAGAAGGGCAUAGUCCGC [JL denovo 10] (Eterna round: R96, puzzle: Exclusion NG 3)	19.7 nM	18.9 nM	21.2 nM	–	–	–
UUUAAAACAUAGGAUAUCGAAAAUAUCAUUUAACGAGAAGGAUGAACAUGAGGAUCACCCAUGUGGUAUCAUGG [Mat - Exclusion 6 - JL Mod - D16] (puzzle: Exclusion 6)	–	–	–	320 nM	580 nM	313 nM
CAAUGUACCUAGGAUAUAACCUACGACAUUGGGUUAGAAGGAGGAACAUGAGGAUCACCCAUGUGACUUCGCAA [Abiisbe] (puzzle: Exclusion 6)	–	–	–	–	9.5 nM	–
UUUUCGUGAGGAUAUCAGUAGUAAAUAAAUAAAAUUACUACUGAGAAGGCACAUGAGGAUCACCCAUGUUCCUU [salish99_ex3_r3_094] (puzzle: Exclusion 4)	–	–	–	–	13.6 nM	–
ACAACAAGCUUUUUGAACGUAGAACAUGCAGCUCUAGUCACAUGAGGAUCACCCAUGUCAGCCAGUUAGAUAGGUGA [JR_SV3TOV2_Sub066] (puzzle: Sensor v3, turn-off variant 2)	–	–	–	93.6 nM	126 nM	127 nM
GCACGGUUGGUAGGAUAUCCUUGCGAUUAGCAAGGAGAAGGACCACAUGAGGAUCACCCAUGUACCUCAAUUAUCCUUCCGUGC [Eli exng1 - 025] (Eterna round: R96, puzzle: Exclusion NG 1)	13.7 nM	10.9 nM	14.9 nM	–	–	–
CCUCAACAGUAGGAUAUCAUCAAACUAUUGUGAUGAGAAGGACUGACAUGAGGAUCACCCAUGUUAACGUGAUG [Mod of Brourd - Jieux - Exclusion 6] (Eterna round: R97, puzzle: Exclusion 6)	176 nM	–	35.8 nM	–	–	–
UUUAAGGAAGGAUAUACAAUAUAAAUAAUAUCCUCAUUAUUACAUGAGGAUCACCCAUGUAGAAGGUCCAAUUU [Mat - Exclusion 2 - Mod of Hog - D89] (puzzle: Exclusion 2)	–	–	–	–	137 nM	–
CGUGACUCAGGAUAUCUAUAAUAUCACAUGAGGAUCACCCAUGUCCAGCGAAAGCUGGAGGGAGAAGGGAGUCACG [Fiskers Ex 5 - 35] (puzzle: Exclusion 5)	–	–	–	32.8 nM	164 nM	146 nM
CAAAAUGUAUAAGGAUAUCUCGCCAAUAAAGGCAGAGAAGGUAUACCCACUUGAGGAUCACCCAAGUCAGGUGUGCCUGGUGGA [Mutated MS2 EX1.24] (Eterna round: R96, puzzle: Exclusion NG 1)	7.87 nM	7.61 nM	10.9 nM	–	–	–
UAAUUAAAUGUAAGGAUAUGGCAAUGCGGUGGCAGUUAGAAGGUACAUGAGGAUCACCCAUGUGUGUAUCGUGA [Eternabot (L1) Solution 93] (Eterna round: R97, puzzle: Brourd's mod of Exclusion 4)	233 nM	–	248 nM	–	–	–
UACAUGAGGAUCACCCAUGUUUUGUCGUGUAUGGUAUUUAUCUAGGAUAUCGAUUUAUUUAACCACGAGAAGGAGAGUAUCAAU [MOD Solution 21 by JMF] (Eterna round: R96, puzzle: Exclusion NG 3)	46.4 nM	36.8 nM	44.1 nM	–	–	–
UCCUGACAUGAGGAUCACCCAUGUAAGGAUAUUAAAACGACUGAACAACUCAGCGGUAUAAGAAGGUACAUGUA [EX1 A.10] (Eterna round: R97, puzzle: Exclusion 1)	12 nM	–	14.4 nM	–	–	–
